Patent publication US20140303356A1

Legend:
[1] = biological target: IgG1Δhinge fragment of IgG1-7D8-K409R; assay: native MS, CH2-CH3 fragment mixed with IgG1Δhinge fragment for 24 hours, heterodimer
[2] = biological target: CH2-CH3 construct G1-F405L (human); assay: native MS, monomer-dimer equilibrium of CH2-CH3 fragment, homodimer

Kd [1]: 12 nM | Kd [2]: 850 nM
Substance: CH2-CH3 construct G1-F405L
